Here are results for 2 molecules from article PMC12755392, “p62 sorts Lupus La and selected microRNAs into breast cancer-derived exosomes”.

The term Kd denotes the concentration at which binding is half-saturated.

In the data set the target is T1, La 1-408 (full-length Lupus La) (Homo sapiens, UniProt P05455 1-408).
T1 sequence: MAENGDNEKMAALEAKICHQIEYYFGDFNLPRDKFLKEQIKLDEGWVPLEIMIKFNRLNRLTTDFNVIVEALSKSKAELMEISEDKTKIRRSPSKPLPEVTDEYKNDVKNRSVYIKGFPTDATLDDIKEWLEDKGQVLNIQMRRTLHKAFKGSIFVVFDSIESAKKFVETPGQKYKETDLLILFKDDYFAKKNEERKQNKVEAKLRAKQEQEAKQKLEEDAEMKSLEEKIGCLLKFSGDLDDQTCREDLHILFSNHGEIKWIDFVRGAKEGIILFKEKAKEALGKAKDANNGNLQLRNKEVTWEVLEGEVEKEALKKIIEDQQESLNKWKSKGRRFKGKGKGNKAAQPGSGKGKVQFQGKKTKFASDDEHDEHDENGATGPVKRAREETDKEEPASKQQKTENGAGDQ
Kind of data set: EMSA; EMSA: 1 nM miRNA, 25 mM Tris-HCl pH 8.0, 100 mM KCl, 1.5 mM MgCl2, 1 mM DTT, 0.05% NP-40, 5% glycerol, 50 ug/ml heparin, 1 U/ul RiboLock; 30 C 30 min then 4 C 10 min; Hill fit. As to conditions: protein: recombinant; tags: C-terminal Nluc-FLAG-His6; label: 5' IRD800; single strand. On the technique in general: In EMSA bound probe runs differently from free probe, usually more slowly.

B1: miR-190 (ssRNA)
RNA: UGAUAUGUUUGAUAUAUUAGGU
Regarding B1, the equilibrium dissociation constant (Kd) is 1.15 µM.

B2: miR-122 (hsa-miR-122-5p?) (ssRNA)
RNA: UGGAGUGUGACAAUGGUGUUUG
Take B2: the Kd amounted to 0.0141 µM.
